Article PMC12548473, “Solution structure of the C-terminal domain of the measles virus V protein in its free form and mechanistic analysis of STAT2 targeting” (Journal of Virology, 2025)

B1: MeV-V_(CT221-299) (measles virus V protein, residues 221-299, containing the C-terminal domain) (domain or fragment)
chain: GPASTSETPIKKGHRREIGLIWNGDRVFIDRWCNPMCSKVTLGTIRARCTCGECPRVCEQCRTDTGVDTRIWYHNLPEIPE
notes: additional Gly and Pro before Ala221, left after HRV-3C protease digestion; 15N- or 13C,15N-labelled for the NMR experiments, unlabelled for ITC; Monomer by SEC; also called MeV-VCT construct; MeV-VCTD; source: E. coli BL21 star (DE3), purified (Glutathione Sepharose 4B, 3C protease elution, HisTrap, HIC, SEC); not shown: GST, N-terminal, cleaved

Legend:
[1] = target: STAT2 core (Homo sapiens) (UniProt P52630); details: cited from earlier work
STAT2-core = target: T1, STAT2-core (UniProt P52630 133-679); assay: ITC; 250 µM MeV-V_(CT221-299) injected (20 x 2.5 µL) into 35 µM STAT2-core; 20°C; 10 mM HEPES pH 7.4, 150 mM NaCl, 1 mM TCEP; 1:1 binding model; three independent experiments; details: both partners purified
T1 construct: source: purified
T1 sequence: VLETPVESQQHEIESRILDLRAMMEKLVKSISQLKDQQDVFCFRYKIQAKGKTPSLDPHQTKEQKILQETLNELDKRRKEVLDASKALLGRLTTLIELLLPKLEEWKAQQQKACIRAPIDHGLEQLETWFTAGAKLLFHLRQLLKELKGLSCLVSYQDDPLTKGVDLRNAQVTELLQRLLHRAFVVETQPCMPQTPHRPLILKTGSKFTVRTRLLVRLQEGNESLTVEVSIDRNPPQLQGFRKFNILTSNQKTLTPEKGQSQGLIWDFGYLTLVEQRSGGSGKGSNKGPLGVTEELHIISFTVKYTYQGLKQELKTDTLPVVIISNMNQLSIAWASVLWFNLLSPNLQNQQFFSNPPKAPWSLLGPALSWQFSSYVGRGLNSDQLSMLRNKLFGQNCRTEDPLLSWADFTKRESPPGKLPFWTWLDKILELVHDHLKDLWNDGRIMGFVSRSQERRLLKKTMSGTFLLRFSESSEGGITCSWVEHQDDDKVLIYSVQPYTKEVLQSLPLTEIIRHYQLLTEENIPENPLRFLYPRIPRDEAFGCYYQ

Molecule | Kd [1] [nM] | Kd (STAT2-core) [nM] | dH (STAT2-core) [kcal/mol] | stoichiometry N (STAT2-core)
MeV-V (from UniProt P0C774) | 180 | – | – | –
B1 | – | 212 | -12.5 | 1.17
